Data as given in patent US20250123292.

Target: recombinant human endorepellin/perlecan (R&Dsystems, catalog Number: 2364-ER-050), intact, P98160

B1: Recombinant Human BMP-1/PCP (R&Dsystems, catalog Number: 1927-ZN) (protein)
chain: AATSRPERVWPDGVIPFVIGGNFTGSQRAVFRQAMRHWEKHTCVTFLERTDEDSYIVFTYRPCGCCSYVGRRGGGPQAISIGKNCDKFGIVVHELGHVVGFWHEHTRPDRDRHVSIVRENIQPGQEYNFLKMEPQEVESLGETYDFDSIMHYARNTFSRGIFLDTIVPKYEVNGVKPPIGQRTRLSKGDIAQARKLYKCPACGETLQDSTGNFSSPEYPNGYSAHMHCVWRISVTPGEKIILNFTSLDLYRSRLCWYDYVEVRDGFWRKAPLRGRFCGSKLPEPIVSTDSRLWVEFRSSSNWVGKGFFAVYEAICGGDVKKDYGHIQSPNYPDDYRPSKVCIWRIQVSEGFHVGLTFQSFEIERHDSCAYDYLEVRDGHSESSTLIGRYCGYEKPDDIKSTSSRLWLKFVSDGSINKAGFAVNFFKEVDECSRPNRGGCEQRCLNTLGSYKCSCDPGYELAPDKRRCEAACGGFLTKLNGSITSPGWPKEYPPNKNCIWQLVAPTQYRISLQFDFFETEGNDVCKYDFVEVRSGLTADSKLHGKFCGSEKPEVITSQYNNMRVEFKSDNTVSKKGFKAHFFSEKRPALQPPRGRPHQLKFRVQKRNRTPQ
- measured levels of LG3 (LG3 ELISA) after in vitro cleavage, 24 hours at 37 C: LG3 was detected only in the endorepellin with BMP-1 sample
